Assay results published in US20250066490A1 (PROFOUNDBIO US, published 2025).

Tests used:
[1] = biological target: T1, human CD70 expressed on the cell surface of tumor cell lines (human, UniProt P32970 1-193); assay: flow cytometry on Raji cells, PE anti-human Fc, MFI(PE); the text gives this EC50 only as about 19 nM
T1 construct: whole, on cells
T1 sequence (looked up): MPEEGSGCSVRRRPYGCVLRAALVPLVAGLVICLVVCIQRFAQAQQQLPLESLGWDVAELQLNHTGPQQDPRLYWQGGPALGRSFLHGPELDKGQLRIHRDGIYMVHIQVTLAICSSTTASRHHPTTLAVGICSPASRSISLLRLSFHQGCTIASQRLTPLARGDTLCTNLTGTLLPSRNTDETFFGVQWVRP
Protocol: Binding activity of 2E7 or the isotype control with a target cell line (Raji) or a cell line (MCF-7) that has negligible level of CD70 expression were evaluated by flow cytometry (Beckman, Cytoflex). 3×10⁵ cells per well were seeded on a 96-well V-bottomed plate and incubated with 100 μl of 2E7 in serial dilutions. After 30 min incubation at 4° C., cells were washed twice with PBS, stained with 100 μl of 1:200 diluted PE-conjugated anti-human Fc in FACS buffer (1×PBS containing 1% BSA), then incubated at 4° C. for 30 min. Cells were finally washed two times with PBS and analyzed by flow cytometric analysis.

[2] = biological target: T1, human CD70 expressed on the cell …; assay: flow cytometry on DBTRG-05MG cells
Protocol: (§1) The lead antibodies were tested for binding to renal carcinoma cells and glioblastoma cells expressing CD70 on the cell surface by flow cytometry. […] U251 cells were cultured with MEM medium containing of 10% FBS and 1% NEAA+1 mM sodium pyruvate. DBTRG-05MG cells were cultured with DMEM medium (Gibco, Cat #C11995500BT) containing of 10% FBS. Each of the lead antibodies and the controls were incubated for 30 mins with the different cell lines (3×10⁵ cells per well) in 0.2 ml FACS buffer (1×PBS with 0.1% BSA) at 4° C. Then, the cells were pelleted, washed, and incubated at 4° C. for 30 mins with 100 μl of 1:200 diluted PE-conjugated anti human Fc (Abcam, Ab98596) in FACS buffer. The cells were pelleted again, washed with PBS, resuspended in FACS buffer and analyzed by flow cytometer (Beckman, CytoFLEX).
(§2) Antibodies 2H8 and 2D2 had slightly higher binding ability to the cell lines than that of antibody 69A7.

[3] = biological target: T1, human CD70 expressed on the cell …; assay: flow cytometry on 786-O cells
Protocol: as §1, §2

[4] = biological target: T2, mouse CD70 extra-cellular domain (ECD) linked to His tag (mouse, UniProt O55237 45-195); assay: BLI, global fit, cell repeated in each row; response below range of quantification, filing reports no cross-reactivity
T2 construct: extracellular domain; also called MS CD70; not shown: His tag
T2 sequence (looked up): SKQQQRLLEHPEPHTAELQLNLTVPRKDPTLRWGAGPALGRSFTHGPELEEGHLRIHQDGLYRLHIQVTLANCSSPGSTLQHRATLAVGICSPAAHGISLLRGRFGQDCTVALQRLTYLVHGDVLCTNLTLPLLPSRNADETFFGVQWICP
Protocol: (§3) Recombinant proteins consisting of human, rat, or mouse CD70 extra-cellular domain (ECD) linked to His tag was purchased (from ACRO systems). 69A7 and 2E7 (20 nM) were immobilized on anti-human IgG Fc biosensor tips (ForteBio). Binding assays using one concentration (100 nM) of recombinant protein in solution were performed using Octet RED (ForteBio). Association time was set at 180s and dissociation time was set at 300s. Binding affinity was calculated using ForteBio Data Acquisition 6.3 software. Affinity was derived by fitting the kinetic data to a 1:1 Langmuir binding model utilizing global fitting algorithms. […] 2E7 had no cross-reactivity to rat or mouse CD70 (Table 10).

[5] = biological target: T3, rat CD70 extra-cellular domain (ECD) linked to His tag (rat); assay: as above
T3 construct: extracellular domain
Protocol: as §3

[6] = biological target: T4, CD70 ECD (antigen immobilized on the CM5 chip) (UniProt P32970 39-193); assay: SPR (Biacore T200), CD70 ECD on CM5 chip, IgG as analyte
T4 construct: extracellular domain; also called CD70 antigen
T4 sequence (looked up): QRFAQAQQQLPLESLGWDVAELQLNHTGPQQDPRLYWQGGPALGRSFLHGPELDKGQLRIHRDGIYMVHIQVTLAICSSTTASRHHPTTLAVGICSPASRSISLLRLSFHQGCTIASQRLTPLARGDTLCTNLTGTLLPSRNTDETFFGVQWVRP
Protocol: The immobilization of antigen CD70 ECD was performed at 25° C. with HBS-EP as the running buffer. Sensor chip surface of flow cells 1, 4 were activated by freshly mixed 50 mmol/L N-Hydroxy succinimide (NHS) and 200 mmol/L 1-ethyl-3-(3-dimethylaminopropyl) carbodiimide hydrochloride (EDC) for 420s (10 μL/min). Afterwards, CD70 antigen diluted in 10 mmol/L NaAC (pH 4.5) was injected into flow cell 4 to achieve conjugation of the appropriate Response Unit, while flow cell 1 was set as a blank. After the amine coupling reaction, the remaining active coupling sites on chip surface were blocked by 420s injection of 1 mol/L ethanolamine hydrochloride.
The assay was performed at 25° C. and the running buffer was HBS-EP. Diluted antibodies were injected over the surface of flow cells 1 and 4 during the association phase, followed by injecting running buffer as the dissociation phase. All the data were processed using Biacore T200 Evaluation software version 3.1. Flow cell 1 and a blank injection of buffer in each cycle were used as a double reference for Response Units subtraction. Kinetic data of the interaction between the antibodies and CD70 antigen were obtained through affinity measurement.

[7] = biological target: T1, human CD70 expressed on the cell …; assay: flow cytometry on U251 cells
Protocol: as §1, §2

B1: 2E7, full IgG (antibody, V domains shown)
VH: QVQLQESGPGLVKPSETLSLTCTVSGGSVSSDYYYWSWIRQPPGKGLEWLGYIYYSGSTNYNPSLKSRVTISVDTSKNQFSLKLRSVTTADTAVYYCARGDGDFLGVCFDYWGQGTLVTVSS
VL: EIVLTQSPATLSLSPGERATLSCRASQSVSSYLAWYQQKPGQAPRLLIFDASNRATGIPARFSGSGSGTDFTLTISSLEPEDFAVYYCQQRSNWPLTFGGGTKVEIK
EC50 [1]: 2.98 µg/mL | EC50 [2]: 6.11 nM | EC50 [3]: 2.69 nM | Kd [4]: 1030 nM | koff [4]: 0.121 s⁻¹ | kon [4]: 117000 M⁻¹ s⁻¹ | Kd [5]: 1.75 nM | koff [5]: 0.0104 s⁻¹ | kon [5]: 5.9e+06 M⁻¹ s⁻¹ | Kd [6]: 14 nM | koff [6]: 0.00106 s⁻¹ | kon [6]: 75400 M⁻¹ s⁻¹ | EC50 [7]: 4.03 nM
